Experiments:
[1] = target: T1, EGFR-pY1068 (SEQ ID NO: 7) (Homo sapiens, UniProt P00533); assay: Single-well 4-spot assay for multiple peptide-protein interactions; assay type: binding; details: 4-spot plate
T1 construct: phosphotyrosine at Tyr1068 (chemical modification); purchased New England Peptide, Fitchburg Mass; host or cells: chemical synthesis
From the text: (§1) Four phosphopeptides and their cognate binding proteins (Table 14) were selected for an integrated assay of multiple peptide-protein interaction in 4-spot Multi-Array plates. The IkBa-24pp peptide and its binding protein, βTRCP, are described in Example 10. […] These phosphotyrosine containing peptides are recognized by different adaptor or effecter proteins of the receptor tyrosine kinase signaling pathway.
(§2) These four peptides were coupled to BSA carrier protein through cystine residue. After purification on PD-10 gel filtration columns, the peptide-BSA conjugates were then deposited on the assay domains of a 4-spot multi-array IPR plate (i.e., in one of the four exposed regions of working electrode defined by the dielectric layer) with an automated micro-dispensing system (Bio-Dot Dispenser, Bio-Dot, Irvine Calif.). […] These plates are dried then used or stored under desiccated conditions. A few hours prior to usage the plates were rehydrated and blocked with 3% BSA in PBS. […] The in vitro translated and biotin-labeled proteins were then assayed in the 4-spot multi-array IPR plates under conditions described in Example 10.

[2] = target: T2, EGFR-pY1148 (SEQ ID NO: 9) (Homo sapiens, UniProt P00533); assay: as above; assay type: binding; details: 4-spot plate
T2 construct: phosphotyrosine at Tyr1148 (chemical modification); purchased New England Peptide, Fitchburg Mass; host or cells: chemical synthesis
From the text: as §1, §2

[3] = system: pooled phosphopeptide:BSA conjugates (Pools A-D); assay: Coded multiplex phosphopeptide binding assay with pooled peptide:BSA conjugates on 4 spots; details: for ECL signal, spot A: Pool A, EGFR-pTyr1148, IkBa-24ppC, Myc-p58Tp62S; for ECL signal, spot B: Pool B, EGFR-pTyr992, EGFR-pTyr1148, Smad3C; for ECL signal, spot C: Pool C, EGFR-pTyr1068, IkBa-24ppC, Smad3C; for ECL signal, spot D: Pool D, EGFR-pTyr992, EGFR-pTyr1068, Myc-p58Tp62S
From the text: To prepare the Multi-Spot IPR plates, in this example we made use of pools of the peptide:BSA conjugates to coat each of 4 spots per well in a 96 well plate. To achieve this we made the following pools; • Pool A; EGFR-pTyr1148, IkBa-24ppC, Myc-p58Tp62S. • Pool B; EGFR-pTyr992, EGFR-pTyr1148, Smad3C. • Pool C; EGFR-pTyr1068, IkBa-24ppC, Smad3C. • Pool D; EGFR-pTyr992, EGFR-pTyr1068, Myc-p58Tp62S.
This combination of the various peptides results in any single peptide being present in two pools. Each of these four pools is then spotted on to a unique spot in a 4 spot array. In this way any single binding protein with specificity for only one of the peptides would bind to two spots; the identity of the two spots would allow the identification of the peptide involved in the binding reaction.
Typically approximately 120 fmole of peptide:BSA conjugate in 0.25 μl was deposited on each spot of a 4-spot multi-array IPR plates using a BioDot Dispenser (Bio-Dot Inc., vIrvine Calif.). At this stage, the plates were dried then used or stored under desiccated condition. A few hours prior to usage, the plates were rehydrated and blocked with 3% BSA, in PBS.
To test the system the following EST clones IMAGE # 3491843, 4237375, 4398016, 4419252, 3872466, 3907115 were obtained. These clones express the following genes βTRCP1, βTRCP2, Grb2, PLCγ, CBP and Shc1, respectively. […] These DNAs were used to produce proteins as described in the Materials and Methods. Proteins were transferred to a well of the 4 spot peptide-coated and BSA blocked ECL plates. The binding assay (using Sulfo-TAG labeled streptavidin as a detection agent) was carried our according to the procedures described in Example 11.

EGFR = target: T3, EGFR (Homo sapiens, UniProt P00533); assay: EGFR binding assay, bound EGFR detected by its tyrosine kinase activity towards pEY
T3 construct: autophosphorylated tyrosines (self-phosphorylated with ATP before use); purchased Sigma Chemical Co, MO
Experimental: Proteins were produced in an in vitro transcription and translation reaction using 40–100 ng of plasmid DNA. […] The unbound components of the reaction containing endogenous kinases were removed by three washes with TT-buffer (25 mM Tris-HCl buffer pH 7.4 and 0.004% Triton), two five minutes washings with high-salt wash buffer (25 mM Tris-HCl buffer pH 7.4, 0.004% Triton, 1M NaCl and 5 mM DTT) and 3 more washes with TT-buffer. […] The unbound EGFR was washed by 4 times washing with TT-buffer (25 mM Tris-HCl buffer pH 7.4 and 0.004% Triton). The amount of EGFR bound to the reticulocyte lysate expressed protein was determined by detecting the kinase activity of EGFR. A tyrosine kinase substrate, 5 nM pEY (poly Glu-Tyr, Sigma, MO) was added in a 50 μl reaction containing 5 mM MgCl2, 5 mM MnCl2, 100 μM ATP, 25 mM Tris-HCl buffer pH 7.4, 0.05 mM Na3VO4, 0.004% TritonX-100, 2 mM DTT and EDTA-free protease inhibitor (Roche Molecular Biochemicals). This mixture was incubated with shaking at room temperature for 1 or 12 hours to allow phosphorylation of the pEY substrate by the EGFR. Following this incubation 45 μl of this mixture was transferred to a SA—NPT IPR plate coated with biotinylated anti-phosphotyrosine antibody (PY20, Zymed labs, CA) followed by incubation for 30 minutes at room temperature to allow the binding of the phosphorylated pEY substrate to the PY20 coated NPT plate. Following this binding step 50 ng Sulfo-TAG labeled anti-phosphotyrosine in buffer containing 25 mM Tris-HCl buffer pH 7.4, 5 mM MgCl2, 0.05 mM Na3VO4, 0.004% TritonX-100, 2 mM DTT and 0.05% IgG was added followed by incubation at room temperature for 30 mm.
The unbound reagents were removed by one time washing with TT-buffer (25 mM Tris-HCl buffer pH 7.4 and 0.004% Triton), and the TAG label was detected in presence of 150 μl IPR assay buffer (0.4 mM Gly-Gly buffer, pH 7.8, 1 mM EDTA, 0.1 M TPA). The ECL signals were measured using an imaging plate reader.

| ECL signal, spot 3 EGFR-pY1068 [1] | ECL signal, spot 2 EGFR-pY1148 [2] | Code (pattern of positive spots) [3] | Peptide determined from code [3] | ECL signal, spot A [3] | ECL signal, spot B [3] | ECL signal, spot C [3] | ECL signal, spot D [3] | ECL signal (EGFR; +EGFR, reaction time 1 hr) | ECL signal (EGFR; +EGFR, reaction time 12 hr) | ECL signal (EGFR; no EGFR) | Molecule |
| --- | --- | --- | --- | --- | --- | --- | --- | --- | --- | --- | --- |
| 24 | 35 | A, C | IkBa-24ppC | 7791 | 105 | 8615 | 74 | – | – | – | 4237375: IMAGE clone protein: βTRCP2 (protein) MEPDSVIEDKTIELMCSVPRSLWLGCANLVESMCALSCLQSMPSVRCLQISNGTSSVIVSRKRPSEGNYQKEKDLCIKYFDQWSESDQVEFVEHLISRMCHYQHGHINSYLKPMLQRDFITALPEQGLDHIAENILSYLDARSLCAAELVCKEWQRVISEGMLWKKLIERMVRTDPLWKGLSERRGWDQYLFKNRPTDGPPNSFYRSLYPKIIQDIETIESNWRCGRHNLQRIQCRSENSKGVYCLQYDDEKIISGLRDNSIKIWDKTSLECLKVLTGHTGSVLCLQYDERVIVTGSSDSTVRVWDVNTGEVLNTLIHHNEAVLHLRFSNGLMVTCSKDRSIAVWDMASATDITLRRVLVGHRAAVNVVDFDDKYIVSASGDRTIKVWSTSTCEFVRTLNGHKRGIACLQYRDRLVVSGSSDNTIRLWDIECGACLRVLEGHEELVRCIRFDNKRIVSGAYDGKIKVWDLQAALDPRAPASTLCLRTLVEHSGRVFRLQFDEFQIISSSHDDTILIWDFLNVPPSAQNETRSPSRTYTYISR |
| 1485 | 110 | B, C, D | EGFR-pTyr992 & EGFR-pTyr1068 | 239 | 2783 | 1550 | 3388 | 17,966 | 39,767 | 1,695 | 4419252: IMAGE clone protein: PLCγ (protein) MAGAASPCANGCGPGAPSDAEVLHLCRSLEVGTVMTLFYSKKSQRPERKTFQVKLETRQITWSRGADKIEGAIDIREIKEIRPGKTSRDFDRYQEDPAFRPDQSHCFVILYGMEFRLKTLSLQATSEDEVNMWIKGLTWLMEDTLQAPTPLQIERWLRKQFYSVDRNREDRISAKDLKNMLSQVNYRVPNMRFLRERLTDLEQRSGDITYGQFAQLYRSLMYSAQKTMDLPFLEASTLRAGERPELCRVSLPEFQQFLLDYQGELWAVDRLQVQEFMLSFLRDPLREIEEPYFFLDEFVTFLFSKENSVWNSQLDAVCPDTMNNPLSHYWISSSHNTYLTGDQFSSESSLEAYARCLRMGCRCIELDCWDGPDGMPVIYHGHTLTTKIKFSDVLHTIKEHAFVASEYPVILSIEDHCSIAQQRNMAQYFKKVLGDTLLTKPVEISADGLPSPNQLKRKILIKHKKLAEGSAYEEVPTSMMYSENDISNSIKNGILYLEDPVNHEWYPHYFVLTSSKIYYSEETSSDQGNEDEEEPKEVSSSTELHSNEKWFHGKLGAGRDGRHIAERLLTEYCIETGAPDGSFLVRESETFVGDYTLSFWRNGKVQHCRIHSRQDAGTPKFFLTDNLVFDSLYDLITHYQQVPLRCNEFEMRLSEPVPQTNAHESKEWYHASLTRAQAEHMLMRVPRDGAFLVRKRNEPNSYAISFRAEGKIKHCRVQQEGQTVMLGNSEFDSLVDLISYYEKHPLYRKMKLRYPINEEALEKIGTAEPDYGALYEGRNPGFYVEANPMPTFKCAVKALFDYKAQREDELTFIKSAIIQNVEKQEGGWWRGDYGGKKQLWFPSNYVEEMVNPVALEPEREHLDENSPLGDLLRGVLDVPACQIAIRPEGKNNRLFVFSISMASVAHWSLDVAADSQEELQDWVKKIREVAQTADARLTEGKIMERRKKIALELSELVVYCRPVPFDEEKIGTERACYRDMSSFPETKAEKYVNKAKGKKFLQYNRLQLSRIYPKGQRLDSSNYDPLPMWICGSQLVALNFQTPDKPMQMNQALFMTGRHCGYVLQPSTMRDEAFDPFDKSSLRGLEPCAISIEVLGARHLPKNGRGIVCPFVEIEVAGAEYDSTKQKTEFVVDNGLNPVWPAKPFHFQISNPEFAFLRFVVYEEDMFSDQNFLAQATFPVKGLKTGYRAVPLKNNYSEDLELASLLIKIDIFPAKENGDLSPFSGTSLRERGSDASGQLFHGRAREGSFESRYQQPFEDFRISQEHLADHFDSRERRAPRRTRVNGDNRL |
